Results from article PMC9986279, “Biochemical and genetic examination of two aminotransferases from the hyperthermophilic archaeon Thermococcus kodakarensis” (Frontiers in Microbiology, 2023).

Experiments:
TK2268 protein = biological target: T1, TK2268 protein (Thermococcus kodakarensis, UniProt Q5JHU0); assay: aminotransferase activity with and without added PLP; assay type: biochemical; conditions: 20 μM PLP, 50 mM HEPES pH 7.4, 80°C
T1 construct: full length, C-terminal His6-tag kept, expressed in T. kodakarensis KPD2; monomer 45,116 Da; dimer (98 kDa) that may assemble to octamer (327 kDa)

TK0548 protein = biological target: T2, TK0548 protein (Thermococcus kodakarensis, UniProt Q5JF51); assay: as above; assay type: biochemical; conditions: 20 μM PLP, 50 mM HEPES pH 7.4, 80°C
T2 construct: full length, no tag (own stop codon in primer), pET21a(+), E. coli BL21-CodonPlus(DE3)-RIL; monomer 43,608 Da, dimer (85 kDa)
T2 sequence (Q5JF51 1-389): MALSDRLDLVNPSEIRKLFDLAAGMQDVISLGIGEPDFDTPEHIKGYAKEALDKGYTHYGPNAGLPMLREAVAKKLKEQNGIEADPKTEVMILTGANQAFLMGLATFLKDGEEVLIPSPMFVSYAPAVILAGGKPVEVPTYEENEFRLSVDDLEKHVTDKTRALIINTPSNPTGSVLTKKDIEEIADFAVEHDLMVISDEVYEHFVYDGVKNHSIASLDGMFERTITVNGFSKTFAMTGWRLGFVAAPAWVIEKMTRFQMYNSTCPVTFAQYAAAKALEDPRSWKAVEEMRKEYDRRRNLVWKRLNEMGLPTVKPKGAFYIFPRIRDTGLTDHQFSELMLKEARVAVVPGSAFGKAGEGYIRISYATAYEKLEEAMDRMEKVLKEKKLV

purified protein = substrate: N[C@@H](CC(=O)O)C(=O)O; assay: purified protein; conditions: 10 mM pyruvate, 20 μM PLP, 50 mM HEPES pH 7.4, 80°C
[1] = substrate: O=C(O)CCC(=O)C(=O)O; assay: aminotransferase assay, Glu formed quantified by HPLC after o-phthalaldehyde derivatization; assay type: biochemical, Thermococcus kodakarensis; conditions: 50 mM Leu, 20 μM PLP, 50 mM HEPES pH 7.4, 80°C
From the text: (§1) aminotransferase assay, Glu formed quantified by HPLC after o-phthalaldehyde derivatization on TK2268 protein

[2] = substrate: N[C@@H](Cc1ccc(O)cc1)C(=O)O; assay: as above; assay type: biochemical, Thermococcus kodakarensis; conditions: 10 mM 2-oxoglutarate, 20 μM PLP, 50 mM HEPES pH 7.4, 80°C
From the text: as §1

[3] = substrate: N[C@@H](CCC(=O)O)C(=O)O; assay: aminotransferase assay, Ala formed quantified by HPLC after o-phthalaldehyde derivatization; assay type: biochemical, Thermococcus kodakarensis; conditions: 10 mM pyruvate, 20 μM PLP, 50 mM HEPES pH 7.4, 80°C
From the text: (§2) aminotransferase assay, Ala formed quantified by HPLC after o-phthalaldehyde derivatization on TK2268 protein

[4] = substrate: CC(C)C[C@H](N)C(=O)O; assay: as above; assay type: biochemical, Thermococcus kodakarensis; conditions: 10 mM pyruvate, 20 μM PLP, 50 mM HEPES pH 7.4, 80°C
From the text: as §2

[5] = substrate: CC(=O)C(=O)O; assay: as above; assay type: biochemical, Thermococcus kodakarensis; conditions: 50 mM Leu, 20 μM PLP, 50 mM HEPES pH 7.4, 80°C
From the text: as §2

[6] = substrate: CC(=O)C(=O)O; assay: as above; assay type: biochemical, Thermococcus kodakarensis; conditions: 10 mM Phe, 20 μM PLP, 50 mM HEPES pH 7.4, 80°C
From the text: aminotransferase assay, Ala formed quantified by HPLC after o-phthalaldehyde derivatization on TK0548 protein

[7] = substrate: N[C@@H](Cc1c[nH]c2ccccc12)C(=O)O; assay: aminotransferase assay, Glu formed quantified by HPLC after o-phthalaldehyde derivatization; assay type: biochemical, Thermococcus kodakarensis; conditions: 10 mM 2-oxoglutarate, 20 μM PLP, 50 mM HEPES pH 7.4, 80°C
From the text: (§3) aminotransferase assay, Glu formed quantified by HPLC after o-phthalaldehyde derivatization on TK0548 protein

[8] = substrate: N[C@@H](Cc1c[nH]cn1)C(=O)O; assay: as above; assay type: biochemical, Thermococcus kodakarensis; conditions: 10 mM 2-oxoglutarate, 20 μM PLP, 50 mM HEPES pH 7.4, 80°C
From the text: as §3

[9] = substrate: N[C@@H](Cc1ccccc1)C(=O)O; assay: as above; assay type: biochemical, Thermococcus kodakarensis; conditions: 10 mM 2-oxoglutarate, 20 μM PLP, 50 mM HEPES pH 7.4, 80°C
From the text: as §3

[10] = substrate: O=C(O)CCC(=O)C(=O)O; assay: as above; assay type: biochemical, Thermococcus kodakarensis; conditions: 10 mM Phe, 20 μM PLP, 50 mM HEPES pH 7.4, 80°C
From the text: as §3

[11] = substrate: CSCC[C@H](N)C(=O)O; assay: as above; assay type: biochemical, Thermococcus kodakarensis; conditions: 10 mM 2-oxoglutarate, 20 μM PLP, 50 mM HEPES pH 7.4, 80°C
From the text: as §3

[12] = substrate: N[C@@H](Cc1ccc(O)cc1)C(=O)O; assay: as above; assay type: biochemical, Thermococcus kodakarensis; conditions: 10 mM 2-oxoglutarate, 20 μM PLP, 50 mM HEPES pH 7.4, 80°C; remark: listed apart in the source
From the text: as §3

How did the “aminotransferase activity with and without added PLP” value (TK2268 protein) turn out when Cc1ncc(COP(=O)(O)O)c(C=O)c1O [pyridoxal 5′-phosphate] was run?
Its value is “suggesting that the TK0548 and TK2268 proteins are PLP-dependent aminotransferases”.

What about the “aminotransferase activity with and without added PLP” value (TK0548 protein) of the same molecule?
The value was “suggesting that the TK0548 and TK2268 proteins are PLP-dependent aminotransferases”.

B1: TK2268 protein (Thermococcus kodakarensis KOD1) (protein)
chain: MRYKKRKYFMAGRINILQRSKIRELFEKASKMENVISLGIGEPDFDTPEVIKEAAKRAIDEGYTHYTPNAGIPEFREAIAEYYKEFYNVDVDMNNIIVTAGAYEATYLAFESILEQGDDVIIPDPAFVCYVEDAKIAEAGIIRIPLREENKFRIDPDELLEAITKRTRMIVMNYPNNPTGAIMKKDVAKAIADIAQDYNIYILSDEPYEHFLYEGARHHPMIKYAPDNTILANSFSKTFAMTGWRLGFAIAPEQVIRDMIKLHAYVIGNVTSFIQIAGITALRDKRSWEAVERMRQVYDERRKLVLKYLNDMPHITPFRPKGAFYIWAKIDPELDMTSEDFAEWLLENAGVVVIPGTAFGRQGEGWIRISYATEKEKLIEAMERMKEALSKL
notes: full length, C-terminal His6-tag kept, expressed in T. kodakarensis KPD2; monomer 45,116 Da; dimer (98 kDa) that may assemble to octamer (327 kDa)
B1 was tested. Which Km (purified protein) did it give?
The Km was 2140 ± 220 µM.

And the Vmax (purified protein)?
Its Vmax is 5.42 µmol/min/mg.

And the kcat (purified protein)?
The kcat was 4.07 s⁻¹.

And the kcat/Km (purified protein)?
The kcat/Km was 1900 M⁻¹ s⁻¹.

What about the Km [1] of the same molecule?
Its Km is 190 ± 30 µM.

And the Vmax [1]?
Its Vmax is 4.45 µmol/min/mg.

What about the kcat [1] of the same molecule?
The kcat was 3.35 ± 0.15 s⁻¹.

What about the kcat/Km [1] of the same molecule?
Its kcat/Km is 17600 M⁻¹ s⁻¹.

And the Km [2]?
The Km was 1450 ± 260 µM.

What about the Vmax [2] of the same molecule?
The Vmax was 0.34 µmol/min/mg.

And the kcat [2]?
The kcat was 0.26 ± 0.02 s⁻¹.

What about the kcat/Km [2] of the same molecule?
Its kcat/Km is 180 M⁻¹ s⁻¹.

What about the Km [3] of the same molecule?
The Km was 2170 ± 270 µM.

What about the Vmax [3] of the same molecule?
Its Vmax is 7.42 µmol/min/mg.

And the kcat [3]?
The kcat was 5.57 ± 0.23 s⁻¹.

And the kcat/Km [3]?
Its kcat/Km is 2570 M⁻¹ s⁻¹.

And the Km [4]?
Its Km is 36300 ± 4300 µM.

What about the Vmax [4] of the same molecule?
Its Vmax is 4.68 µmol/min/mg.

What about the kcat [4] of the same molecule?
The kcat was 3.52 ± 0.23 s⁻¹.

What about the kcat/Km [4] of the same molecule?
Its kcat/Km is 100 M⁻¹ s⁻¹.

And the Km [5]?
Its Km is 2720 ± 350 µM.

What about the Vmax [5] of the same molecule?
Its Vmax is 3.76 µmol/min/mg.

And the kcat [5]?
Its kcat is 2.83 ± 0.16 s⁻¹.

And the kcat/Km [5]?
Its kcat/Km is 1040 M⁻¹ s⁻¹.

B2: TK0548 protein (Thermococcus kodakarensis KOD1) (protein)
chain: MALSDRLDLVNPSEIRKLFDLAAGMQDVISLGIGEPDFDTPEHIKGYAKEALDKGYTHYGPNAGLPMLREAVAKKLKEQNGIEADPKTEVMILTGANQAFLMGLATFLKDGEEVLIPSPMFVSYAPAVILAGGKPVEVPTYEENEFRLSVDDLEKHVTDKTRALIINTPSNPTGSVLTKKDIEEIADFAVEHDLMVISDEVYEHFVYDGVKNHSIASLDGMFERTITVNGFSKTFAMTGWRLGFVAAPAWVIEKMTRFQMYNSTCPVTFAQYAAAKALEDPRSWKAVEEMRKEYDRRRNLVWKRLNEMGLPTVKPKGAFYIFPRIRDTGLTDHQFSELMLKEARVAVVPGSAFGKAGEGYIRISYATAYEKLEEAMDRMEKVLKEKKLV
notes: full length, no tag (own stop codon in primer), pET21a(+), E. coli BL21-CodonPlus(DE3)-RIL; monomer 43,608 Da, dimer (85 kDa)
With B2 as the molecule, how does the Km [6] read?
The Km was 48000 ± 5000 µM.

And the Vmax [6]?
The Vmax was 137 µmol/min/mg.

What about the kcat [6] of the same molecule?
The kcat was 100 ± 7 s⁻¹.

What about the kcat/Km [6] of the same molecule?
The kcat/Km was 2070 M⁻¹ s⁻¹.

What about the Km [7] of the same molecule?
The Km was 1100 ± 100 µM.

What about the Vmax [7] of the same molecule?
The Vmax was 359 µmol/min/mg.

What about the kcat [7] of the same molecule?
Its kcat is 261 ± 10 s⁻¹.

What about the kcat/Km [7] of the same molecule?
Its kcat/Km is 237000 M⁻¹ s⁻¹.

What about the Km [8] of the same molecule?
Its Km is 4400 ± 400 µM.

And the Vmax [8]?
Its Vmax is 179 µmol/min/mg.

And the kcat [8]?
Its kcat is 130 ± 6 s⁻¹.

What about the kcat/Km [8] of the same molecule?
Its kcat/Km is 29600 M⁻¹ s⁻¹.

What about the Km [9] of the same molecule?
The Km was 670 ± 60 µM.

And the Vmax [9]?
The Vmax was 483 µmol/min/mg.

What about the kcat [9] of the same molecule?
Its kcat is 351 ± 10 s⁻¹.

And the kcat/Km [9]?
The kcat/Km was 524000 M⁻¹ s⁻¹.

What about the Km [10] of the same molecule?
Its Km is 1500 ± 200 µM.

And the Vmax [10]?
The Vmax was 334 µmol/min/mg.

And the kcat [10]?
Its kcat is 243 ± 10 s⁻¹.

What about the kcat/Km [10] of the same molecule?
Its kcat/Km is 162000 M⁻¹ s⁻¹.

And the Km [11]?
The Km was 64000 ± 9000 µM.

What about the Vmax [11] of the same molecule?
Its Vmax is 169 µmol/min/mg.

And the kcat [11]?
Its kcat is 123 ± 14 s⁻¹.

What about the kcat/Km [11] of the same molecule?
The kcat/Km was 1920 M⁻¹ s⁻¹.

And the Km [12]?
The Km was 1400 ± 200 µM.

And the Vmax [12]?
Its Vmax is 419 µmol/min/mg.

What about the kcat [12] of the same molecule?
The kcat was 305 ± 19 s⁻¹.

What about the kcat/Km [12] of the same molecule?
The kcat/Km was 218000 M⁻¹ s⁻¹.
